The target in the series is T1, SenRc (His-tagged response regulator) (Streptomyces coelicolor A3(2)) (UniProt Q9KXW5).
T1 sequence: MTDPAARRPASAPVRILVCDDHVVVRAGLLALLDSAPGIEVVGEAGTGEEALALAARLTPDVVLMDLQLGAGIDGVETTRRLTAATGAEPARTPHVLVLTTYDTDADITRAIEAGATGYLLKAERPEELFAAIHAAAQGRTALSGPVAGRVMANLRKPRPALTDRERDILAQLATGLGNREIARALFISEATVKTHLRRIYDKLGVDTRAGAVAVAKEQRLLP
Description: EMSA. Particulars: 10 mM Tris-HCl pH 7.5, 5% glycerol, 40 mM KCl, 1 mM MgCl2, 2 mM DTT, 10 ug/ml BSA; 30 C, 15 min; 30 ul with 20 ng or 25 ng (Methods) DNA; 7% …. Background: A gel shift assay detects complexes by their altered migration in electrophoresis.
Consider “CACCGGATACCTGTTGAAGGCCGAACGCCCCGAGGAGCTGTTCGCGGCCATCCACGCCGCCGCCCAGGGCCGTACGGCACTGTCCGGGCCGGTCGCCGGCCGGGTCATGGCCAACCTGCGCAAGCCGCGCCCCGCCCTCACCGACCGCGAGCGCGACATCCTGGCCCAGCTCGCCACCGGGCTCGGCAACCGGGAGATCGCCCGCGCCCTGTTCATCAG (double strand) [in-senRc]”, for which the binding result was “no binding”.
For “CACGTCGACCTCGGCCGCATGTCCAGCGCCATCTGTCCGGGCCGCTGAGAGCACTCTCCAGCACCTCCGGATTCCCCGCATTCACCTCGCTCCCGCGCAATGACGCGCACGCGTGTCTCACGTATGCCCACGTAGTGCCATGCGCCATGCGCGCAGGTCAGAGCCGTTTCCACCTGTCTCCAAAGGACGTGTCACACCATGGCCGCCACTC (double strand) [up-SCO6102]”, the binding entry is reported as “binds”.
As for “CTCGTACGTCCGTTTCGGGGGCTCGAAGACGGCTTCGCGCCCCCCGCCGTGCCCCCACGCTTACACGTTCCGGCCTGTACGCGTCCGTTTCCGGCACCCCAAATGAACCGTCCCTGGCTCCAAGGTGAACTCTGGGCGACGAGTGTTCGAGGTCGCACCCGGATGGCTGGGGCCGGACGGTTCGCCGTGCCTAACCTGGAGACATGGACGTGAAC (double strand) [up-SCO4229]”, the binding result is “binds”.
As to “GAAAGCATGGGTGTTAAAGTCGTGTGCATGAAGCAAGCAGCCGCGCCCACCACACCACAGCGCCTCGCGCTCGTGGCGCGCCTGCACGTGGACCTCTGCCGGTGCGCGTCCGCGAACTGTCGCCCCTGACGTTCCCCCCTCACCAGTCGTCCCCACGTCAGCTCAGCGCGTCCCATCCCGCGTCCCGTCCCCCTACGGAGCATGTCCGTGTG (double strand) [up-SCO4498]”, the binding result is listed as “binds”.
For “GAGGAAGCCCGGTGCGAATCCGGCGCGGTCCCGCCACTGTGACCGGGGACAGGATCCCCGGGAGCCAGGAACTCTCGCCGCCGTGCTCTTCGAACCAGGGCGCGGACACCCTGAGTGAGGACCTATCGCCATGCGCGGCTGCCGTTCCGGGCTCACCAGCGACACGCTTCGACTTCCCCTTCCCACGGCCGGTTGAGCCGTGCGTGCC (double strand) [up-SCO1847]”, the binding entry is listed as “binds”.
The entry for “GAGTGGCGGCCATGGTGTGACACGTCCTTTGGAGACAGGTGGAAACGGCTCTGACCTGCGCGCATGGCGCATGGCACTACGTGGGCATACGTGAGACACGCGTGCGCGTCATTGCGCGGGAGCGAGGTGAATGCGGGGAATCCGGAGGTGCTGGAGAGTGCTCTCTTCAAGCTTGACAGATGGCGCTGGACATGCGGCCGAGGTCGACGTG (double strand) [up-SCO6102*]” is “no binding”; for “GGCACGTGCGCGCACGCCTGTCCAGTCCGAGGACCTGCCGACAGTGCGCCCGGCCGCCCTGGCCCGGGTGCCATGACGTCCGGGCCTCGCGGAGTGGGCCGGTGGACGCGACGCCGCGTGCGCTCGTGAGCTGCCCCCTGCCCTCCCTCCGCCGGGCCCCGTGCCGAGCGAGGGAGTGCTCCACGTGACCATCGCGCCAG (double strand) [up-SCO5226]” it is “binds”; for “GTTCACGTCCATGTCTCCAGGTTAGGCTCGTCGAAGATCAAGCTTGAGCCATCCGGGTGGGACCTCGAACACTCGTCGCCCAGAGTTCACCTTGGAGCCAGGGACGGTTCATTTGGGGTGCCGGAAACGGACGCGTACAGGCCGGAACGTGTAAGCGTGGGGGCACGGCGGGGGGCGCGAAGCCGTCTTCGAGCCCCCGAAACGGACGTACGAG (double strand) [up-SCO4229*]” it is “no binding”.

(Values after publication PMC4991794.)
